Measurements taken from patent publication US20250262210A1 (TRUSTEES OF COLUMBIA UNIVERSITY IN THE CITY OF NEW YORK, published 2025).

Legend:
Assay in all cases: IP/MS, LZTR1 R810W-FLAG, U87
[1] = target: CDK5RAP2 (human, UniProt Q96SN8 1-1893, limits assumed)
How it was run: (§1)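 Extracted peptides in 3% acetonitrile/0.1% formic acid ran on a 50 cm C18 column into an Orbitrap Fusion, with MaxQuant identification and spectral counting.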

[2] = target: T1, UBE4B (human, UniProt O95155 1-1302, limits assumed)
T1 sequence (looked up): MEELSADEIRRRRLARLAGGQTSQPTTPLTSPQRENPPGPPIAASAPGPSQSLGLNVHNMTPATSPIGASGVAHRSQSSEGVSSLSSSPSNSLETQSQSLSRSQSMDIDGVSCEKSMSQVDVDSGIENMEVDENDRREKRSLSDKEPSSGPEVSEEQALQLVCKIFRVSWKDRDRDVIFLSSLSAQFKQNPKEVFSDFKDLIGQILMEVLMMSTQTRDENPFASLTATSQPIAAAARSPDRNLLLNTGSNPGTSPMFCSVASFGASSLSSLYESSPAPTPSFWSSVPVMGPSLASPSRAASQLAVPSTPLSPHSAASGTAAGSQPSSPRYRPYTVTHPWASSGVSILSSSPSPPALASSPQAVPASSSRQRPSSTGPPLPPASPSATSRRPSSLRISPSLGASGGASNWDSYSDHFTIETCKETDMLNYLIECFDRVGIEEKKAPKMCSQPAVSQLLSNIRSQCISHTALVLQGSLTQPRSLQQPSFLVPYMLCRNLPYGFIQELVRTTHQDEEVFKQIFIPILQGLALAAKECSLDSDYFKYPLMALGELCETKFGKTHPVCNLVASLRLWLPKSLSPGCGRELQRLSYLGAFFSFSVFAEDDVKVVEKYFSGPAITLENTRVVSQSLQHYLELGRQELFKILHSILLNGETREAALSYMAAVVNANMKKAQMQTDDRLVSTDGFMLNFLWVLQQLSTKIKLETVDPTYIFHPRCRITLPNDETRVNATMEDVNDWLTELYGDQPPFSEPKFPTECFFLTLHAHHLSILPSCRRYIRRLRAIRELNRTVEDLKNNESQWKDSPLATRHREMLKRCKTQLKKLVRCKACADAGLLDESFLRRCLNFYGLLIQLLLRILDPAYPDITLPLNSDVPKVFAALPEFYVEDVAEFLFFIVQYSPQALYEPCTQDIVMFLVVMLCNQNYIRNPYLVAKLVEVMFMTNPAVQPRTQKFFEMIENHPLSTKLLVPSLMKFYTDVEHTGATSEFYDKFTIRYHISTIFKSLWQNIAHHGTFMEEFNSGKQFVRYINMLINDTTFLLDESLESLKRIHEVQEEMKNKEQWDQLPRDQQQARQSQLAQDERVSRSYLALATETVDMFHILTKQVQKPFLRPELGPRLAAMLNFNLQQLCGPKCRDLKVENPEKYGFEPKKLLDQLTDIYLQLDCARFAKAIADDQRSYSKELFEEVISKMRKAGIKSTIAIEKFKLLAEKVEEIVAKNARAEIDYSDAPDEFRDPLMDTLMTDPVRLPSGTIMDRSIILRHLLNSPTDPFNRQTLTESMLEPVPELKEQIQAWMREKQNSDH
How it was run: as §1

[3] = target: CDC42BPA (human, UniProt Q5VT25 1-1732, limits assumed)
How it was run: as §1

[4] = target: POLR1A (human, UniProt O95602 1-1720)
How it was run: as §1

Measured: binding result

POLR1A, sequence (O95602 whole entry): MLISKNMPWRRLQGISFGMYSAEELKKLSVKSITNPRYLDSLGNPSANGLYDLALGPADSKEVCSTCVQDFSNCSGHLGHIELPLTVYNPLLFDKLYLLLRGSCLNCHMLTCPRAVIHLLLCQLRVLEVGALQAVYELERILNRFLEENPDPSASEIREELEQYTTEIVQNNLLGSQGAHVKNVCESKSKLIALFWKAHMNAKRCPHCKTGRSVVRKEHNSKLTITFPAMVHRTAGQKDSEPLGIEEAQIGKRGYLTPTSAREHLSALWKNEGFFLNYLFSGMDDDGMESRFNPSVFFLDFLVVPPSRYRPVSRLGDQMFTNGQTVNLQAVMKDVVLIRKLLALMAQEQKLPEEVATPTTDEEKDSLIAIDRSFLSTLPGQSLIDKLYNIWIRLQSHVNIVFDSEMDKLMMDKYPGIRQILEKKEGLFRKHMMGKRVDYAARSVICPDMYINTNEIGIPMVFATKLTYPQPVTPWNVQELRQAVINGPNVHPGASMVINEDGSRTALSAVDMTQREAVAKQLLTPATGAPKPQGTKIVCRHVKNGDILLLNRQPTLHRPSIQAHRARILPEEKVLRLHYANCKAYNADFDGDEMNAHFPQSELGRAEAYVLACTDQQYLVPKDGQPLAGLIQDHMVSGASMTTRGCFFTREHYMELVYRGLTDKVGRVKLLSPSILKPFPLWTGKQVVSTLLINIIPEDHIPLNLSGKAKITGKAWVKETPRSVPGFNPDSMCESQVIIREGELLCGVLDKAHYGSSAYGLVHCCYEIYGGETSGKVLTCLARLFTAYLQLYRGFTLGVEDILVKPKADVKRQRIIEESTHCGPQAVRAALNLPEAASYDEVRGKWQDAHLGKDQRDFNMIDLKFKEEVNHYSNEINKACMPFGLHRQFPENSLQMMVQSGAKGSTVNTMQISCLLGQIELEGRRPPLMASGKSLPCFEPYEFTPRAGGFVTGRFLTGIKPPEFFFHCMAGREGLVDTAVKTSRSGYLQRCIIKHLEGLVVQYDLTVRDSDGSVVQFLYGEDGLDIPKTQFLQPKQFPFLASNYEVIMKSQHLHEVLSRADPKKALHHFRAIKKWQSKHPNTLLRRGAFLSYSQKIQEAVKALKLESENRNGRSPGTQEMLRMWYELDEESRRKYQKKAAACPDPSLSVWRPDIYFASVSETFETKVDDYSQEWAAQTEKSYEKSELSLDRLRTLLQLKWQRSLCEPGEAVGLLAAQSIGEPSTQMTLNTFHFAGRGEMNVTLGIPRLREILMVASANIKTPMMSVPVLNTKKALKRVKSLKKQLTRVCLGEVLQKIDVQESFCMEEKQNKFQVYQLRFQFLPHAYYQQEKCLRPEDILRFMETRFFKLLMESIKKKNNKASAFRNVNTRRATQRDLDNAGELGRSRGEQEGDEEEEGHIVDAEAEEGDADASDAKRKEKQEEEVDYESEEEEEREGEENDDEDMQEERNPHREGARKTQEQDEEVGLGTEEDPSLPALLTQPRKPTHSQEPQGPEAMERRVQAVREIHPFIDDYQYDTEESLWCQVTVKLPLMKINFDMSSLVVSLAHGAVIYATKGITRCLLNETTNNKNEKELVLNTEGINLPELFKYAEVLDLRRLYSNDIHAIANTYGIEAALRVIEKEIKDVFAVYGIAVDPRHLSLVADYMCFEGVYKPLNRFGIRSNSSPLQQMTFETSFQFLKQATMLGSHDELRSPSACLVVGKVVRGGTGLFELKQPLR
CDC42BPA, sequence (Q5VT25 whole entry): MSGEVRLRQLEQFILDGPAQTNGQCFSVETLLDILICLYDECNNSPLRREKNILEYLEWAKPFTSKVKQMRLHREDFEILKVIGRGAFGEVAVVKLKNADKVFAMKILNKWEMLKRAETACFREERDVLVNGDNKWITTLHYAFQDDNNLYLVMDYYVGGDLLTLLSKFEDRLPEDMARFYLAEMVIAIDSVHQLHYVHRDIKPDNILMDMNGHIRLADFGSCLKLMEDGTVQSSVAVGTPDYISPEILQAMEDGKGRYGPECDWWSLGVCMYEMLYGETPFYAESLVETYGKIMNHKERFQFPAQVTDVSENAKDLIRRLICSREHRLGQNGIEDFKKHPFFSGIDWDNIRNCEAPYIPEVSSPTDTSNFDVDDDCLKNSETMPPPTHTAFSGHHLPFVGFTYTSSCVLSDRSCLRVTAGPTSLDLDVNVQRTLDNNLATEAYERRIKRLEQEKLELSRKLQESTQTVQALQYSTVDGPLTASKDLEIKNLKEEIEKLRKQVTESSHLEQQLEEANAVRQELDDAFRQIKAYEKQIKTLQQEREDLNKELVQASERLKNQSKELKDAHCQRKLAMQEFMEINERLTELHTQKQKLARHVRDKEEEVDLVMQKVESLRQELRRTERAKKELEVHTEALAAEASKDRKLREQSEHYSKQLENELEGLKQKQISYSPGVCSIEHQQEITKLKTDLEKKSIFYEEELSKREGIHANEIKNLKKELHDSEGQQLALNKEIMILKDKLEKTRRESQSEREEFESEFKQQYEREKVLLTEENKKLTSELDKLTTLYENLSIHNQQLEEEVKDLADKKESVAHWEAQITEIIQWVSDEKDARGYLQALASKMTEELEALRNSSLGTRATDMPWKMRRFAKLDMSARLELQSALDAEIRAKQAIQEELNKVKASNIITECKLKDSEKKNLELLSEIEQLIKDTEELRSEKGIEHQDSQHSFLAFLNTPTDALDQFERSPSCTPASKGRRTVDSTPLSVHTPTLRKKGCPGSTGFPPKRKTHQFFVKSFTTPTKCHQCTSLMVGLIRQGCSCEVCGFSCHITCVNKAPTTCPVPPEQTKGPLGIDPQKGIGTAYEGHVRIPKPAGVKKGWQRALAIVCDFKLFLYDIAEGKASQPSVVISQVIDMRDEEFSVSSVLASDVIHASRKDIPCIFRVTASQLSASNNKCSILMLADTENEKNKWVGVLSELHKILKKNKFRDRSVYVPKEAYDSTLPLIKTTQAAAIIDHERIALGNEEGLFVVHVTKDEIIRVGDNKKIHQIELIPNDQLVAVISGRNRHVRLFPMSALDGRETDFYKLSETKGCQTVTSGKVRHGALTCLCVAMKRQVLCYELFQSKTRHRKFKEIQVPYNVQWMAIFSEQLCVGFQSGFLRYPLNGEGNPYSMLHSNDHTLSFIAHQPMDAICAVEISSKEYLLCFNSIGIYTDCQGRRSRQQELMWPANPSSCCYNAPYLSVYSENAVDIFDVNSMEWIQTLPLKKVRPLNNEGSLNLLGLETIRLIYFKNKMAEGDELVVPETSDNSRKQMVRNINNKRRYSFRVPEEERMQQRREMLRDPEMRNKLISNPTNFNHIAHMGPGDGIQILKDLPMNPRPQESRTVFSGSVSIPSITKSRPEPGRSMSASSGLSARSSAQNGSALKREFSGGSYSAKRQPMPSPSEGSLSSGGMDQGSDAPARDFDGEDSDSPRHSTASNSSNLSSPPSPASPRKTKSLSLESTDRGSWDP

B1: LZTR1 R810W-FLAG (other, human, UniProt Q8N653 1-840, looked up)
chain: MAGPGSTGGQIGAAALAGGARSKVAPSVDFDHSCSDSVEYLTLNFGPFETVHRWRRLPPCDEFVGARRSKHTVVAYKDAIYVFGGDNGKTMLNDLLRFDVKDCSWCRAFTTGTPPAPRYHHSAVVYGSSMFVFGGYTGDIYSNSNLKNKNDLFEYKFATGQWTEWKIEGRLPVARSAHGATVYSDKLWIFAGYDGNARLNDMWTIGLQDRELTCWEEVAQSGEIPPSCCNFPVAVCRDKMFVFSGQSGAKITNNLFQFEFKDKTWTRIPTEHLLRGSPPPPQRRYGHTMVAFDRHLYVFGGAADNTLPNELHCYDVDFQTWEVVQPSSDSEVGGAEVPERACASEEVPTLTYEERVGFKKSRDVFGLDFGTTSAKQPTQPASELPSGRLFHAAAVISDAMYIFGGTVDNNIRSGEMYRFQFSCYPKCTLHEDYGRLWESRQFCDVEFVLGEKEECVQGHVAIVTARSRWLRRKITQARERLAQKLEQEAAPVPREAPGVAAGGARPPLLHVAIREAEARPFEVLMQFLYTDKIKYPRKGHVEDVLLIMDVYKLALSFQLCRLEQLCRQYIEASVDLQNVLVVCESAARLQLSQLKEHCLNFVVKESHFNQVIMMKEFERLSSPLIVEIVRRKQQPPPRTPLDQPVDIGTSLIQDMKAYLEGAGAEFCDITLLLDGHPRPAHKAILAARSSYFEAMFRSFMPEDGQVNISIGEMVPSRQAFESMLRYIYYGEVNMPPEDSLYLFAAPYYYGFYNNRLQAYCKQNLEMNVTVQNVLQILEAADKTQALDMKRHCLHIIVHQFTKVSKLPTLWSLSQQLLLDIIDSLASHISDKQCAELGADI
notes: Stably expressed in U87 cells by lentivirus; also called LZTR1-FLAG-R810W; LZTR1 RW; not shown: FLAG tag
binds: [1] | [2] | [3] | [4]
